T1: mouse CEACAM1 (mouse, UniProt P31809 35-521, limits assumed)
T1 sequence (looked up): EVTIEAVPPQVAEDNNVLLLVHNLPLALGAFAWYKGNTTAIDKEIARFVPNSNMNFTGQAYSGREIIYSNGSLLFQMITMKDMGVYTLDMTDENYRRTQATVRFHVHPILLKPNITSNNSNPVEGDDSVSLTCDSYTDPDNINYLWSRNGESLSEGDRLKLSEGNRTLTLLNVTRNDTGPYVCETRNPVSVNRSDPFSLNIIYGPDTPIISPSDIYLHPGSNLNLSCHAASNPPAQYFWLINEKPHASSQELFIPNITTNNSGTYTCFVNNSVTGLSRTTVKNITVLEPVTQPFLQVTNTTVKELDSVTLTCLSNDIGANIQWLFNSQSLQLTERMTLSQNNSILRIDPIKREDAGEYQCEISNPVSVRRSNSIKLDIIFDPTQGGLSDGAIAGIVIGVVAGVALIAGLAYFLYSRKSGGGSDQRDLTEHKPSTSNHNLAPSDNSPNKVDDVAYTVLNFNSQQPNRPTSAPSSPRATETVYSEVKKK


Legend:
mouse CEACAM1 [1] = biological target: T1, mouse CEACAM1; assay: flow cytometry dot plot (x: mIgG1 CONTROL, y: FITC). Cells of the 5F4-treated mouse group, isotype control staining for the 5F4 panel above it.
human CEACAM1 (human) [2] = biological target: human CEACAM1 (human) (UniProt P13688); assay: flow cytometry dot plot (x: mIgG1 CONTROL, y: FITC). Cells of the MOPC-treated mouse group, isotype control staining for the 5F4 panel above it.
mouse CEACAM1 [3] = biological target: T1, mouse CEACAM1; assay: flow cytometry, 5F4 staining of lymph node cells of the 5F4-treated mouse group (mouse cells; per the legend no human CEACAM1+ cells present)
human CEACAM1 (human) [4] = biological target: human CEACAM1 (human) (UniProt P13688); assay: flow cytometry dot plot (x: hCEACAM1 (5F4), y: FITC). Per the legend, axillary lymph node cells of an MOPC-treated Rag2-/- mouse 2 weeks after s.c. AsPc-1 inoculation. Gated events spread from about 10^3 to above 10^4 on the x axis. The panel is marked *.

human CEACAM1 (human), sequence (P13688 35-526): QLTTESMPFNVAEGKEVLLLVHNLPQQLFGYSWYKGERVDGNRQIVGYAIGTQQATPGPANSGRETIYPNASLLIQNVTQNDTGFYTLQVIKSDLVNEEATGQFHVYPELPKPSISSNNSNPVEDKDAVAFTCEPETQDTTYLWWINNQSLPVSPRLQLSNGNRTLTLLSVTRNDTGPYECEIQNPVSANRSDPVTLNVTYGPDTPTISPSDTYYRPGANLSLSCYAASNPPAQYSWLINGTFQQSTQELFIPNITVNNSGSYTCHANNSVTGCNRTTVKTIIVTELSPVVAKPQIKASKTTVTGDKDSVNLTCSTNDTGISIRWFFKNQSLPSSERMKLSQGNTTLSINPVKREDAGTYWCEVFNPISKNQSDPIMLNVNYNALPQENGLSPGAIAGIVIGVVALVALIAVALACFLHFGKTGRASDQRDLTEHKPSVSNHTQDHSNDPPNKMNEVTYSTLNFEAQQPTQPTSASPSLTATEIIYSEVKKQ

number printed in the same gate of the dot plot (mouse CEACAM1 [1]) | number printed in the same gate of the dot plot (human CEACAM1 (human) [2]) | binding result (mouse CEACAM1 [3]) | number printed in the hCEACAM1 (5F4)-positive gate of the dot plot (human CEACAM1 (human) [4]) | Molecule
1.27 | 0.667 | – | – | mIgG1 CONTROL (antibody)
– | – | no binding | 2.15 | 5F4 mouse anti-human CEACAM1 monoclonal antibody (hybridoma 5F4/2C6/2H3) (antibody, mouse IgG1, V domains shown, also called 5F4 antibody; 5F4 monoclonal antibody) VH: EVQLVESGGDLVKPGGSLKLACAASGFIFSSHGMSWVRQTPDKRLEWVATISSGGTYTYYPDSVKGRFTISRDNDKNTLYLQMNSLKSEDTAMYYCARHDFDYDAAWFAYWGQGTLVTVSA VL: QIVLTQSPALMSASPGVKVTMTCSANSSVSYMYWYRQKPRSSPKPWIYLTSNLASGVPARFSGSGSGTSYSLTISSMEAEDAATYYCQQWSSNPPTFGSGTKLEIK

Source: patent publication US20140328841A1 (BRIGHAM AND WOMEN S HOSPITAL, published 2014)
